Laboratory results taken from US20060003399A1, “High throughput actin polymerization assay” (Cytokinetics, Inc., priority 2004, published 2006).
“Also recorded” adds a separate entry of the source.

Tests used:
full length human WASP = target: T1, full length human WASP (Homo sapiens, UniProt P42768); experiment: Pyrene-actin polymerization assay: activation of full length WASP by upstream regulators; format: biochemical; details: for activation of FL-WASP (in words): Arp2/3 4.0 nM, actin 3.5 μM; for Barbed ends % of max.** (WASP): after subtracting baseline (WASP without activators); for Barbed ends, nM* (WASP): total concentration of Arp2/3 complex in the assay is 4.2 nM; for EC50: activation of WASP; for acceleration of actin polymerization by the activator: FL-WASP
T1 construct: Full length human WASP and N-WASP were TAP-tagged; Myc (N); made in house; host or cells: human 293 cells (Freestyle 293-F), transient transfection
T1 sequence (P42768 1-502): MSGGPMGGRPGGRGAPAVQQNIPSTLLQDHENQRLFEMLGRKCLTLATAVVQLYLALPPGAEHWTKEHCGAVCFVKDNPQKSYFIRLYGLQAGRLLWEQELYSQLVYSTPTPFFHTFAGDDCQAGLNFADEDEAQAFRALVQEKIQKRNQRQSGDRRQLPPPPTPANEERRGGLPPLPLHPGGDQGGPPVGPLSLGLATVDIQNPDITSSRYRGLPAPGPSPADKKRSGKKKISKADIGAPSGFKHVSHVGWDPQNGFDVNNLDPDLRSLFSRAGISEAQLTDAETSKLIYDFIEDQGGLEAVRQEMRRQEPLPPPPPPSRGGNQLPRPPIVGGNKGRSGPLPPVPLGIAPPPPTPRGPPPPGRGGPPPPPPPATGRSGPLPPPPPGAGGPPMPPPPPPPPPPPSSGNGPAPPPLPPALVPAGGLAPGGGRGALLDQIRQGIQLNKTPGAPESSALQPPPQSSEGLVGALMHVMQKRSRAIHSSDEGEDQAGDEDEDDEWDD
Description: (§1) Samples containing candidate agents (individually or as mixtures) are placed into wells on a multi-well plate. Mix 1 is added to each of the wells and mixed with the candidate agent. A sample of Mix 2 is then introduced into each well and the resulting mixture thoroughly mixed. Typically, Mix 1 and Mix 2 are mixed in 1:1 ratio (e.g., 50 μl each of Mix 1 and Mix 2).
(§2) Actin polymerization is measured as a function of time by exciting pyrene at 365 nm and by detecting an increase in fluorescence emission at 407 nm, or by exciting acrylodan at 405 nm and by detecting an increase in fluorescence emission at 460 nm. The change in fluorescence over time is utilized to determine a fluorescence parameter (e.g., maximal velocity, time to half maximal fluorescence intensity, or area under the curve of a plot of fluorescence versus time; see e.g., FIGS. 5A-5F).
(§3) Full length human WASP and N-WASP were TAP-tagged (Rigaut, et al. (1999) Nat. Biotechnology 17:1030, which is incorporated herein by reference in its entirety for all purposes) at the C-terminus (see, also Examples 2 and 3). The recombinant WASP and N-WASP were expressed in human 293 cells and then purified using a TAP-tag protocol as described in Example 6.
Arp2/3 was purified as described in Example 1. […]
The effect of PIP2 on the ability of upstream regulators to regulate FL-WASP was evaluated in a fifth set of experiments. The results are depicted in graphical format in FIG. 11.

full length human N-WASP = target: T2, full length human N-WASP (Homo sapiens, UniProt O00401); experiment: Pyrene-actin polymerization assay: activation of full length N-WASP by upstream regulators; format: biochemical; details: for activation of FL-N-WASP (in words): Arp2/3 4.0 nM, actin 3.5 μM; for Barbed ends % of max.** (N-WASP): after subtracting baseline (WASP without activators); for Barbed ends, nM* (N-WASP): total concentration of Arp2/3 complex in the assay is 4.2 nM; for EC50: activation of N-WASP
T2 construct: Full length human WASP and N-WASP were TAP-tagged; Myc (N); made in house; host or cells: human 293 cells (Freestyle 293-F), transient transfection; insert amplified from HeLa total RNA
T2 sequence (O00401 whole entry Y76H/A201G/F223S/S242L/D248E/S252L/N296S/A333E): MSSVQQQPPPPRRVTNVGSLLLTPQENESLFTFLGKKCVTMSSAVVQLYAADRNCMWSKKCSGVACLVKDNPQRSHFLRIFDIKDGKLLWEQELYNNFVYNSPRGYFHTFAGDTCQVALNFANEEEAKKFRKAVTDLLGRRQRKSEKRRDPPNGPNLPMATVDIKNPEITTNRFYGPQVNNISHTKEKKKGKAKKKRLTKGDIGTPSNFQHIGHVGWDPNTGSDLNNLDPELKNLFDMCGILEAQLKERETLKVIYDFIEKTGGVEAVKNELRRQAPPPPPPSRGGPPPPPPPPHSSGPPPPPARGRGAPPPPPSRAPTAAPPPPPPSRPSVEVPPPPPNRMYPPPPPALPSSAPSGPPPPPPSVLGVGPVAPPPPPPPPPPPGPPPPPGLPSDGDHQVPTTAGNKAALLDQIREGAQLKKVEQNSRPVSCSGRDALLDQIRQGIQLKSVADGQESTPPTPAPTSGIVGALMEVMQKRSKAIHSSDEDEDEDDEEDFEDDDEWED
Description: as §1, §2, §3
Arp2/3 was purified as described in Example 1.
Arp2/3 and actin concentrations were as described for the third experiment.
Another set of experiments similar to the fifth set were conducted using FL-N-WASP.

Row | Substance | activation of FL-WASP (in words) (full length human WASP; FIG. 9) | activation of FL-N-WASP (in words) (full length human N-WASP; FIG. 10) | relative potency as WASP activator (in words) (full length human WASP; FIG. 9) | Barbed ends % of max.** (WASP) (full length human WASP) | Barbed ends, nM* (WASP) (full length human WASP) | EC50 (full length human WASP) | Barbed ends % of max.** (N-WASP) (full length human N-WASP; N-WASP) | Barbed ends, nM* (N-WASP) (full length human N-WASP; N-WASP) | EC50 (full length human N-WASP) | other results
1 | RhoC: GTPase, GST-tev-RhoC (SEQ ID NO:28) | could not activate | could not activate | – | – | – | – | – | – | – | –
2 | Nck2: upstream regulator, GST-tagged (SEQ ID NO:46) | – | can stimulate production of maximal concentration of barbed ends | most powerful activators | 50 % of max. | 2.6 nM | 12 nM | 78 % of max. | 3.5 nM | 7 nM | dose dependence of WASP activation / barbed end concentration (in words) (full length human WASP; FIG. 9, inhibition at higher concentrations): bell shaped dependence; also recorded: inhibited; relative potency as N-WASP activator (in words) (full length human N-WASP; FIG. 10, Rac1 vs Cdc42 in the absence of PIP2 vesicles): significantly better activator of N-WASP than WASP; also recorded: most powerful activators; dose dependence of N-WASP activation (in words) (full length human N-WASP; FIG. 10, inhibition at higher concentrations): bell shaped dose dependence curve; also recorded: inhibited
3 | phosphatidylinositol-4,5-bisphosphate [PIP2, reference compound] | – | – | – | – | – | – | – | – | – | effect of PIP2 on FL-WASP (full length human WASP; in the absence of small GTPases or Nck, FIG. 11): no effect; also recorded: minimal, if any, effect; effect of PIP2 on WASP stimulated actin polymerization (full length human WASP; in the presence of small GTPases or Nck, FIG. 11): strong inhibitory effect; effect of PIP2 on Nck stimulated activation of N-WASP (full length human N-WASP; Nck present, FIG. 12): inhibited; also recorded: inhibitory effect; effect of PIP2 on N-WASP activation by Rac1 or Cdc42 (full length human N-WASP; small GTPases present, FIG. 12): marked synergistic effect; also recorded: synergistically; also recorded: marked synergestic effect
4 | RhoA: GTPase, GST-tev-RhoA (SEQ ID NO:30) | could not activate | could not activate | – | – | – | – | – | – | – | –
5 | Cdc42: Rho-family GTPase upstream regulator, GST-tagged (SEQ ID NO:26) | fully activates FL-WASP; also recorded: can fully activate FL-WASP | – | more effective on WASP-stimulated actin nucleation by Arp2/3 complex than on N-WASP-stimulated actin nucleation | 87 % of max. | 3.8 nM | 16 nM | 9 % of max. | 1.3 nM | 287 nM | acceleration of actin polymerization by the activator (full length human WASP; FIG. 7): 13 fold; acceleration of actin polymerization by the activator (full length human WASP; FIG. 7 legend): 13 times; acceleration of actin polymerization by the activator (full length human N-WASP; FL-N-WASP, FIG. 7 legend): 13 times; acceleration of actin polymerization by the activator (full length human N-WASP; N-WASP, FIG. 7): 13 fold
